In patent US20250171562A1:

Molecular target: mixture of three Der p 2 specific recombinant human IgE clones H10, H12, P4E (human) (UniProt P01854)
Experiment: RBL-SX38 IgE displacement, FACS

Sequence of mixture of three Der p 2 specific recombinant human IgE clones H10, H12, P4E (human) (P01854 other isoform, or with tags, fused parts or gaps): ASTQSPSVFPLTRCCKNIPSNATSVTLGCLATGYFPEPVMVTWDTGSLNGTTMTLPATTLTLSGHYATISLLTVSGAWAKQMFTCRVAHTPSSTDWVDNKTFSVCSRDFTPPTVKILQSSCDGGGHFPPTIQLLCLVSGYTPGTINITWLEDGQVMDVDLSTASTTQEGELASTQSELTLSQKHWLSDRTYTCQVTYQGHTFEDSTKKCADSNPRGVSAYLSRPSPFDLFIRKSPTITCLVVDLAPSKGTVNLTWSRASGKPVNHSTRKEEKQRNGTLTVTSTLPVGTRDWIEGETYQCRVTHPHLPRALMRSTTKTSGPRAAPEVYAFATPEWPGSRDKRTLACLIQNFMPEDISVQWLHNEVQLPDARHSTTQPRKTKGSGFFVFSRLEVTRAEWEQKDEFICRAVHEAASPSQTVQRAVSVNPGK

Binder	EC50	Max effect/effect 1 µM
NIgG4F4A1(G4S)1 (Fc fusion) chain 1: DVQLQESGGGLVQAGGSLRLSCAVSGLSFSSMGWFRQPPGKEREFVAAISLYSGSTYYADSVKGRFTISSDNAKSTVYLQMNSLKPEDAAVYFCAADRQRTWSTFYASRQATYNYWGQGTQVTVTSGGGGSGPPCPPCPAPEFLGGPSVFLFPPKPKDTLMISRTPEVTCVVVDVSQEDPEVQFNWYVDGVEVHNAKTKPREEQFNSTYRVVSVLTVLHQDWLNGKEYKCKVSNKGLPSSIEKTISKAKGQPREPQVYTLPPCQEEMTKNQVSLWCLVKGFYPSDIAVEWESNGQPENNYKTTPPVLDSDGSFFLYSRLTVDKSRWQEGNVFSCSVMHEALHNHYTQKSLSLSLGK chain 2: EVQLLESGGGLVQPGGSLRLSCAASGFTFGNYDMAWVRQAPGKRPEWVSSIDTGGDITHYADSVKGRFTISRDNAKNTLYLQMNSLRPEDTAVYWCATDEEYALGPNEFDYYGQGTLVTVSSGGGGSGPPCPPCPAPEFLGGPSVFLFPPKPKDTLMISRTPEVTCVVVDVSQEDPEVQFNWYVDGVEVHNAKTKPREEQFNSTYRVVSVLTVLHQDWLNGKEYKCKVSNKGLPSSIEKTISKAKGQPREPQVCTLPPSQEEMTKNQVSLSCAVKGFYPSDIAVEWESNGQPENNYKTTPPVLDSDGSFFLVSRLTVDKSRWQEGNVFSCSVMHEALHNHYTQKSLSLSLGK	21.6 nM	100%
NIgG4F4A1(G4S)2 (Fc fusion) chain 1: DVQLQESGGGLVQAGGSLRLSCAVSGLSFSSMGWFRQPPGKEREFVAAISLYSGSTYYADSVKGRFTISSDNAKSTVYLQMNSLKPEDAAVYFCAADRQRTWSTFYASRQATYNYWGQGTQVTVTSGGGGSGGGGSGPPCPPCPAPEFLGGPSVFLFPPKPKDTLMISRTPEVTCVVVDVSQEDPEVQFNWYVDGVEVHNAKTKPREEQFNSTYRVVSVLTVLHQDWLNGKEYKCKVSNKGLPSSIEKTISKAKGQPREPQVYTLPPCQEEMTKNQVSLWCLVKGFYPSDIAVEWESNGQPENNYKTTPPVLDSDGSFFLYSRLTVDKSRWQEGNVFSCSVMHEALHNHYTQKSLSLSLGK chain 2: EVQLLESGGGLVQPGGSLRLSCAASGFTFGNYDMAWVRQAPGKRPEWVSSIDTGGDITHYADSVKGRFTISRDNAKNTLYLQMNSLRPEDTAVYWCATDEEYALGPNEFDYYGQGTLVTVSSGGGGSGGGGSGPPCPPCPAPEFLGGPSVFLFPPKPKDTLMISRTPEVTCVVVDVSQEDPEVQFNWYVDGVEVHNAKTKPREEQFNSTYRVVSVLTVLHQDWLNGKEYKCKVSNKGLPSSIEKTISKAKGQPREPQVCTLPPSQEEMTKNQVSLSCAVKGFYPSDIAVEWESNGQPENNYKTTPPVLDSDGSFFLVSRLTVDKSRWQEGNVFSCSVMHEALHNHYTQKSLSLSLGK	21.1 nM	97%
CIgG4F4A1(G4S)2 (Fc fusion) chain 1: GPPCPPCPAPEFLGGPSVFLFPPKPKDTLMISRTPEVTCVVVDVSQEDPEVQFNWYVDGVEVHNAKTKPREEQFNSTYRVVSVLTVLHQDWLNGKEYKCKVSNKGLPSSIEKTISKAKGQPREPQVYTLPPCQEEMTKNQVSLWCLVKGFYPSDIAVEWESNGQPENNYKTTPPVLDSDGSFFLYSRLTVDKSRWQEGNVFSCSVMHEALHNHYTQKSLSLSLGKGGGGSGGGGSDVQLQESGGGLVQAGGSLRLSCAVSGLSFSSMGWFRQPPGKEREFVAAISLYSGSTYYADSVKGRFTISSDNAKSTVYLQMNSLKPEDAAVYFCAADRQRTWSTFYASRQATYNYWGQGTQVTVTS chain 2: GPPCPPCPAPEFLGGPSVFLFPPKPKDTLMISRTPEVTCVVVDVSQEDPEVQFNWYVDGVEVHNAKTKPREEQFNSTYRVVSVLTVLHQDWLNGKEYKCKVSNKGLPSSIEKTISKAKGQPREPQVCTLPPSQEEMTKNQVSLSCAVKGFYPSDIAVEWESNGQPENNYKTTPPVLDSDGSFFLVSRLTVDKSRWQEGNVFSCSVMHEALHNHYTQKSLSLSLGKGGGGSGGGGSEVQLLESGGGLVQPGGSLRLSCAASGFTFGNYDMAWVRQAPGKRPEWVSSIDTGGDITHYADSVKGRFTISRDNAKNTLYLQMNSLRPEDTAVYWCATDEEYALGPNEFDYYGQGTLVTVSS	0.9 nM	100%
NIgG4F4A1(G4S)3 (Fc fusion) chain 1: DVQLQESGGGLVQAGGSLRLSCAVSGLSFSSMGWFRQPPGKEREFVAAISLYSGSTYYADSVKGRFTISSDNAKSTVYLQMNSLKPEDAAVYFCAADRQRTWSTFYASRQATYNYWGQGTQVTVTSGGGGSGGGGSGGGGSGPPCPPCPAPEFLGGPSVFLFPPKPKDTLMISRTPEVTCVVVDVSQEDPEVQFNWYVDGVEVHNAKTKPREEQFNSTYRVVSVLTVLHQDWLNGKEYKCKVSNKGLPSSIEKTISKAKGQPREPQVYTLPPCQEEMTKNQVSLWCLVKGFYPSDIAVEWESNGQPENNYKTTPPVLDSDGSFFLYSRLTVDKSRWQEGNVFSCSVMHEALHNHYTQKSLSLSLGK chain 2: EVQLLESGGGLVQPGGSLRLSCAASGFTFGNYDMAWVRQAPGKRPEWVSSIDTGGDITHYADSVKGRFTISRDNAKNTLYLQMNSLRPEDTAVYWCATDEEYALGPNEFDYYGQGTLVTVSSGGGGSGGGGSGGGGSGPPCPPCPAPEFLGGPSVFLFPPKPKDTLMISRTPEVTCVVVDVSQEDPEVQFNWYVDGVEVHNAKTKPREEQFNSTYRVVSVLTVLHQDWLNGKEYKCKVSNKGLPSSIEKTISKAKGQPREPQVCTLPPSQEEMTKNQVSLSCAVKGFYPSDIAVEWESNGQPENNYKTTPPVLDSDGSFFLVSRLTVDKSRWQEGNVFSCSVMHEALHNHYTQKSLSLSLGK	44.5 nM	85%
CIgG4F4A1(G4S)1 (Fc fusion) chain 1: GPPCPPCPAPEFLGGPSVFLFPPKPKDTLMISRTPEVTCVVVDVSQEDPEVQFNWYVDGVEVHNAKTKPREEQFNSTYRVVSVLTVLHQDWLNGKEYKCKVSNKGLPSSIEKTISKAKGQPREPQVYTLPPCQEEMTKNQVSLWCLVKGFYPSDIAVEWESNGQPENNYKTTPPVLDSDGSFFLYSRLTVDKSRWQEGNVFSCSVMHEALHNHYTQKSLSLSLGKGGGGSDVQLQESGGGLVQAGGSLRLSCAVSGLSFSSMGWFRQPPGKEREFVAAISLYSGSTYYADSVKGRFTISSDNAKSTVYLQMNSLKPEDAAVYFCAADRQRTWSTFYASRQATYNYWGQGTQVTVTS chain 2: GPPCPPCPAPEFLGGPSVFLFPPKPKDTLMISRTPEVTCVVVDVSQEDPEVQFNWYVDGVEVHNAKTKPREEQFNSTYRVVSVLTVLHQDWLNGKEYKCKVSNKGLPSSIEKTISKAKGQPREPQVCTLPPSQEEMTKNQVSLSCAVKGFYPSDIAVEWESNGQPENNYKTTPPVLDSDGSFFLVSRLTVDKSRWQEGNVFSCSVMHEALHNHYTQKSLSLSLGKGGGGSEVQLLESGGGLVQPGGSLRLSCAASGFTFGNYDMAWVRQAPGKRPEWVSSIDTGGDITHYADSVKGRFTISRDNAKNTLYLQMNSLRPEDTAVYWCATDEEYALGPNEFDYYGQGTLVTVSS	0.9 nM	100%
CIgG4F4A1(G4S)3 (Fc fusion) chain 1: GPPCPPCPAPEFLGGPSVFLFPPKPKDTLMISRTPEVTCVVVDVSQEDPEVQFNWYVDGVEVHNAKTKPREEQFNSTYRVVSVLTVLHQDWLNGKEYKCKVSNKGLPSSIEKTISKAKGQPREPQVYTLPPCQEEMTKNQVSLWCLVKGFYPSDIAVEWESNGQPENNYKTTPPVLDSDGSFFLYSRLTVDKSRWQEGNVFSCSVMHEALHNHYTQKSLSLSLGKGGGGSGGGGSGGGGSDVQLQESGGGLVQAGGSLRLSCAVSGLSFSSMGWFRQPPGKEREFVAAISLYSGSTYYADSVKGRFTISSDNAKSTVYLQMNSLKPEDAAVYFCAADRQRTWSTFYASRQATYNYWGQGTQVTVTS chain 2: GPPCPPCPAPEFLGGPSVFLFPPKPKDTLMISRTPEVTCVVVDVSQEDPEVQFNWYVDGVEVHNAKTKPREEQFNSTYRVVSVLTVLHQDWLNGKEYKCKVSNKGLPSSIEKTISKAKGQPREPQVCTLPPSQEEMTKNQVSLSCAVKGFYPSDIAVEWESNGQPENNYKTTPPVLDSDGSFFLVSRLTVDKSRWQEGNVFSCSVMHEALHNHYTQKSLSLSLGKGGGGSGGGGSGGGGSEVQLLESGGGLVQPGGSLRLSCAASGFTFGNYDMAWVRQAPGKRPEWVSSIDTGGDITHYADSVKGRFTISRDNAKNTLYLQMNSLRPEDTAVYWCATDEEYALGPNEFDYYGQGTLVTVSS	1.2 nM	97%
CIgG4F4A1(RS) (Fc fusion) chain 1: GPPCPPCPAPEFLGGPSVFLFPPKPKDTLMISRTPEVTCVVVDVSQEDPEVQFNWYVDGVEVHNAKTKPREEQFNSTYRVVSVLTVLHQDWLNGKEYKCKVSNKGLPSSIEKTISKAKGQPREPQVYTLPPCQEEMTKNQVSLWCLVKGFYPSDIAVEWESNGQPENNYKTTPPVLDSDGSFFLYSRLTVDKSRWQEGNVFSCSVMHEALHNHYTQKSLSLSLGKRSDVQLQESGGGLVQAGGSLRLSCAVSGLSFSSMGWFRQPPGKEREFVAAISLYSGSTYYADSVKGRFTISSDNAKSTVYLQMNSLKPEDAAVYFCAADRQRTWSTFYASRQATYNYWGQGTQVTVTS chain 2: GPPCPPCPAPEFLGGPSVFLFPPKPKDTLMISRTPEVTCVVVDVSQEDPEVQFNWYVDGVEVHNAKTKPREEQFNSTYRVVSVLTVLHQDWLNGKEYKCKVSNKGLPSSIEKTISKAKGQPREPQVCTLPPSQEEMTKNQVSLSCAVKGFYPSDIAVEWESNGQPENNYKTTPPVLDSDGSFFLVSRLTVDKSRWQEGNVFSCSVMHEALHNHYTQKSLSLSLGKRSEVQLLESGGGLVQPGGSLRLSCAASGFTFGNYDMAWVRQAPGKRPEWVSSIDTGGDITHYADSVKGRFTISRDNAKNTLYLQMNSLRPEDTAVYWCATDEEYALGPNEFDYYGQGTLVTVSS	1.2 nM	99%
NIgG4F5A1(RS) (Fc fusion) chain 1: DVQLQESGGGLVQPGGSLRLSCAASGSIFSIDIMGWYRQAPGKQRELVATMPEGNYINYADSVKGRLTLSRDKGKNTVYLQLNSLKPEDTAVYYCYGFGVREGRGNVYWGQGTQVTVSRSGPPCPPCPAPEFLGGPSVFLFPPKPKDTLMISRTPEVTCVVVDVSQEDPEVQFNWYVDGVEVHNAKTKPREEQFNSTYRVVSVLTVLHQDWLNGKEYKCKVSNKGLPSSIEKTISKAKGQPREPQVYTLPPCQEEMTKNQVSLWCLVKGFYPSDIAVEWESNGQPENNYKTTPPVLDSDGSFFLYSRLTVDKSRWQEGNVFSCSVMHEALHNHYTQKSLSLSLGK chain 2: EVQLLESGGGLVQPGGSLRLSCAASGFTFGNYDMAWVRQAPGKRPEWVSSIDTGGDITHYADSVKGRFTISRDNAKNTLYLQMNSLRPEDTAVYWCATDEEYALGPNEFDYYGQGTLVTVSSRSGPPCPPCPAPEFLGGPSVFLFPPKPKDTLMISRTPEVTCVVVDVSQEDPEVQFNWYVDGVEVHNAKTKPREEQFNSTYRVVSVLTVLHQDWLNGKEYKCKVSNKGLPSSIEKTISKAKGQPREPQVCTLPPSQEEMTKNQVSLSCAVKGFYPSDIAVEWESNGQPENNYKTTPPVLDSDGSFFLVSRLTVDKSRWQEGNVFSCSVMHEALHNHYTQKSLSLSLGK	0.7 nM	99%
